Experimental data taken from US20230312722A1 (NONA BIOSCIENCES SUZHOU, published 2023).

Tests used:
[1] = target: T1, human B7H4 on the cell surface (human, UniProt Q7Z7D3 25-282); experiment: FACS, SK-BR-3 cells
T1 construct: whole, on cells; also called CHOK1/hu B7H4; B7H4 on SK-BR-3
T1 sequence (looked up): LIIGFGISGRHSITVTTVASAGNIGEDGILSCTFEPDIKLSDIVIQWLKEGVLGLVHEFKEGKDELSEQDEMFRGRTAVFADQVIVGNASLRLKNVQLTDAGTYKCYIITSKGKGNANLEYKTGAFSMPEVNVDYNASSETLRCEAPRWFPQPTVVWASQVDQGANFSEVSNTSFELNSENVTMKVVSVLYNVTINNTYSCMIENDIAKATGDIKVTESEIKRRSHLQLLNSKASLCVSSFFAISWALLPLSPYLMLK
Experimental: This example is intended to investigate the in vitro binding activity of anti-human B7H4 H2L2 monoclonal antibody to human/cynomolgus monkey/mouse B7H4. Antibody binding experiments at the cellular level were performed using CHOK1 cell line overexpressing human B7H4 (CHOK1/hu B7H4, Harbour BioMed), CHOK1 cell line overexpressing cynomolgus monkey B7H4 (CHOK1/cyno B7H4, Harbour BioMed), CHOK1 cell line overexpressing mouse B7H4 (CHOK1/m B7H4, Harbour BioMed) and SK-BR-3 cell line (ATCC® HTB-30) highly expressing human B7H4. Briefly, CHOK1/hu B7H4 cells, CHOK1/cyno B7H4 cells, CHOK1/m B7H4 cells or SK-BR-3 cells were digested and resuspended with PBS containing 2% BSA. The cell density was adjusted to 1×10⁶ cells/mL. The cells were seeded in a 96-well V-bottom plate (Corning, #3894) at 100 μL/well, followed by the addition of test antibodies diluted in a 3-fold concentration gradient of 2 times the final concentration, each at 100 μL/well. The cells were incubated at 4° C. for 2 h away from light. Thereafter, the cells in each well were rinsed twice with 100 μL of pre-cooled PBS containing 2% BSA, and centrifuged at 500 g at 4° C. for 5 min, and then the supernatant was discarded. Then 100 μL of a fluorescent secondary antibody (Alexa Fluor 488-conjugated AffiniPure Goat Anti-Human IgG, Fcγ Fragment Specific, Jackson, #109-545-098, 1:500 diluted) was added to each well. The plate was incubated away from light at 4° C. for 1 h. The cells in each well were washed twice with 100 μL of pre-cooled PBS containing 2% BSA, and centrifuged at 500 g at 4° C. for 5 minutes, and then the supernatant was discarded. Finally, the cells in each well were resuspended with 200 μL of pre-cooled PBS containing 2% BSA, and the fluorescence signal values were read using an ACEA Novocyte3000 flow cytometer.

[2] = target: T2, Human B7H4 (his tag), Sino Biological #10738-H08H (human, UniProt Q7Z7D3 25-259); experiment: SPR (Biacore T200), antibody captured on Protein A, B7H4-his as analyte, 1:1 fit
T2 construct: extracellular domain; Bought protein; also called hB7H4-ECD-his
T2 sequence (looked up): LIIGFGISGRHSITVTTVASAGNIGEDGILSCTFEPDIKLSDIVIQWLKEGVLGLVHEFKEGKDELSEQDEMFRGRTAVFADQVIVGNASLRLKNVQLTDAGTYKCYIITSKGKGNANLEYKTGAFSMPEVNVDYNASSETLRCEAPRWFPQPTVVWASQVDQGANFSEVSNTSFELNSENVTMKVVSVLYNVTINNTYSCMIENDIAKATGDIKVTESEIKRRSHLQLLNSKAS
Experimental: 10×HBS-EP+ (GE Healthcare, #BR-1006-69) was diluted 10-fold and then taken as an experimental buffer. The flow rate was set at 10 μL/min, and Protein A was coupled to 4 channels of a chip CM5 (GE Healthcare, #BR-1005-30) through the following procedures: 1) the injection time was set to 800 s, and a fresh mixture of 50 mM NHS and 200 mM EDC was injected into the 4 channels in a volume ratio of 1:1; 2) Protein A was diluted to 20 μg/mL with sodium acetate (GE Healthcare, #BR-1003-50) at pH 4.5 and injected into each channel for 800 s; and 3) 1 M ethanolamine at pH 8.5 was injected for 800 s to block the remaining active carboxyl groups on the chip surface. After blocking, the instrument was equilibrated with 1×HBS-EP+buffer for 2 hours, and the final coupling level of Protein A was about 2000 RU.
A multi-cycle kinetics mode was set at Biacore T200, and each cycle included antibody capture, analyte binding and chip regeneration. […] Finally, 10 mM glycine-hydrochloric acid at pH 1.5 (GE Healthcare, #BR-1003-54) was injected at the same flow rate for 30 s to regenerate the chip.
The experimental results were analyzed using the Biacore T200 analysis software 2.0, with channel 1 subtracted as a reference channel and a 1:1 kinetic fitting model selected as an analysis model.

[3] = target: T3, B7-H4 (Acro Biosystems, #B74-H82E2) (UniProt Q7Z7D3 29-258); experiment: BLI epitope competition; 1st Ab = row; competitor (2nd Ab) Control antibody 2; inhibition of the 2nd Ab signal
T3 construct: Bought protein; also called B7-H4 captured on SA sensor
T3 sequence (looked up): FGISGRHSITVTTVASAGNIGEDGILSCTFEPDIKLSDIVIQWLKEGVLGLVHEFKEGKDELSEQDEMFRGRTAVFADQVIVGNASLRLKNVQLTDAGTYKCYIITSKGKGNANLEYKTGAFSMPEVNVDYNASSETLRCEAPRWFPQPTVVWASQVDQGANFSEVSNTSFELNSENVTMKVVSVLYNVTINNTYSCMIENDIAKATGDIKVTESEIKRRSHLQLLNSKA
Experimental: Step one, acquisition of 100% signal of antibodies: B7-H4 (Acro Biosystems, #B74-H82E2-200 μg) was captured at a capture height of 0.25 nm using an SA sensor (Fortebio, #18-5019). The sensor was equilibrated in a buffer for 120 s and then immersed in each antibody diluted to 100 nM for 240 s, and the final signal of the antibody binding to B7-H4 was recorded as the 100% signal of the antibody. Step two, epitope competition experiment: B7-H4 was captured using an SA sensor at a capture height of 0.25 nm. The sensor was immersed in a primary antibody (at a concentration of 100 nM) for 240 s, and then the SA sensor was immersed in a mixture of the primary and secondary antibodies (both at a final concentration of 100 nM) for 240 s, and the difference in signals after immersion of the sensor in the antibody mixture was recorded as the signal of the antibody as the secondary antibody. The inhibition rate was calculated according to the following formula: […]

[4] = target: T1, human B7H4 on the cell surface; experiment: FACS on MDA-MB-468 cells; in the drawn table the number stands under the head 'Maximum MFI' (the two heads are interchanged); the head says nM, the axis of the curve µg/mL

EC50 [1]: 1.18 nM | Maximum MFI [1]: 316000 MFI | Kd [2]: 4.67 nM | koff [2]: 0.000189 s⁻¹ | kon [2]: 40400 M⁻¹ s⁻¹ | Competitive inhibition rate (%) [3]: 94.6% | EC50 [4]: 0.194 nM
B1: Control antibody 1 (PR000157) (antibody, V domains shown)
VH: EVQLVQSGAEVKKPGASVKVSCKASGYTFTSYWIGWVRQAPGQGLEWIGDIYPGGGYTNYNEKFKGRVTITRDTSTSTAYLELSSLRSEDTAVYYCARLAGSSYRGAMDSWGQGTLVTVSS
VL: DIQMTQSPSSLSASVGDRVTITCKASQGFNKYVAWYQQKPGKAPKLLIYYTSTLQPGVPSRFSGSGSGRDYTLTISSLQPEDFATYYCLQYGDLLYAFGQGTKVEIKR
notes: Anti-B7H4 IgG1 control antibody from WO2016040724A1; also called 1D11.v1.9varC2
